Measured values taken from paper PMC12607617, “Self-resistance mechanism to acyldepsipeptide antibiotics in the Streptomyces producer” (mBio, 2025).

Target: the molecule itself
Test: SEC; purified S. hawaiiensis ClpP1, alone or with ClpP_(ADEP), pre-incubated with ADEP1

B1: Streptomyces hawaiiensis ClpP1, untagged (enzyme, Streptomyces hawaiiensis NRRL 15010, UniProt A0A5B9BGY8 1-219, looked up)
chain: MRRPGAVVRRAGGYVTNLMPSAAGEPSIGGGLGDQVYNRLLNERIIFLGQPVDDDIANKITAQLLLLASDPEKDIYLYINSPGGSITAGMAIYDTMQYIKNDVVTIAMGLAASMGQFLLSAGTPGKRFALPNAEILIHQPSAGLAGSASDIKIHAERLLHTKKRMAELTSQHTGQTIEQITRDSDRDRWFDAFEAKEYGLIDDVMTTAAGMPGGGGTGA
notes: ClpP1, proteolytic subunit of the Clp protease, Streptomyces hawaiiensis NRRL 15010; Printed as untagged in the pull-down; also called shClpP1
For B1, the “stoichiometry N” value was 14.
